Assay: yeast display, Sf9 membrane polyspecificity reagent, FACS + sequencing; frameworks hold sequencing errors
Procedure, shortened: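 Polyreactivity labels are assigned by the sorting gate from which each nanobody was recovered. The gates were low and high (top ~1%), set on anti-HA fluorescence for expression and streptavidin fluorescence for reagent binding. Before sorting, galactose-induced (36–48 hours) yeast display cells were stained for 1 hour at 4 °C with 10% biotinylated, detergent-solubilized Sf9 membrane reagent.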

QVQLVESGGGLVQAGGSLRLSCAASGRIFKLYAMGWYRQAPGKERELVAAISTSAGSTNYADSVKGRFTISRDNSKNTVYLQMNSLKPEDTAVYYCAVAGVSTYYTYYYWGQGTQVTVSS
polyreactivity (PSR sort gate): low polyreactivity

QVQLVESGGGLVQAGGSLRLSCAASGRIFKLYARGWYRQAPGKERELVAAITSGGRTNYADSVKGRFTISRDNAKNTVYLQMNSLKPEDTAVYYCAARYYIVSLGSGYWGQGTQVTVSS
polyreactivity (PSR sort gate): high polyreactivity

QVQLVESGGGLVQAGGSLRLSCAASGRIFKNNAMGWYRQAPGKERELVAAITWRSGRTYYADSVKGRFTISRDNAKNTVYLQMNSLKAEDTAVYYCAKQVFGYGIVNNGDYWGQGTQVTVSS
polyreactivity (PSR sort gate): high polyreactivity

QVQLVESGGGLVQAGGSLRLSCAASGRIFKPYVMGWYRQAPGKERELVASITWNGGRTYYADSVKGRFTISRDNAKNTVYLQMNSLKPEDTAVYYCAADYWTTADPRNIIKYDYWGQGTQVTVSS
polyreactivity (PSR sort gate): high polyreactivity

QVQLVESGGGLVQAGGSLRLSCAASGRIFKRNAMGWYRQAPGNERELVAAINWSGGSTYYADSVKGRFTISRDTAKNTVYLQMNSLKPEDTAVYYCAALRVQGDYDYWGQGTQVTVSS
polyreactivity (PSR sort gate): high polyreactivity

QVQLVESGGGLVQAGGSLRLSCAASGRIFKRNTMGWYRQAPGKERELVAAITRSGGSTHYADSVKGRFTISRDNAKNTVYLQMNSLKPEDTAVYYCAVRAAAIDRLAQFDYWGQGTQVTVSS
polyreactivity (PSR sort gate): low polyreactivity

QVQLVESGGGLVQAGGSLRLSCAASGRIFKRYAKGWYRQAPGKERELVAAISGSGGSTSYADSVKGRFTLSRDNAKNTVYLQMNSLKPEDTAVYYCNTTPRFIRSIGQGNYWVQGTQVTVSS
polyreactivity (PSR sort gate): high polyreactivity

QVQLVESGGGLVQAGGSLRLSCAASGRIFKRYAMGWSRQAPGKDRELVATITTSGDSTYYADSVKGRFTISRDNAKNTVYLQMNSLKPEDTAVYDCAARSYRGRRYDYWGQGTQVTVSS
polyreactivity (PSR sort gate): high polyreactivity

QVQLVESGGGLVQAGGSLRLSCAASGRIFKSNAMGWYRQAPGKEWELVASISRSGSTNYADSVKGRFTISRDNAKNTVYLQMNSLKPEDTAVYYCAKDPDAKGGGYDYWGQGTQVTVSS
polyreactivity (PSR sort gate): low polyreactivity

QVQLVESGGGLVQAGGSLRLSCAASGRIFKSYAMGWYRQAPGKERELVAAIRSGGSTYYADSVKGRFTISRDNAKYTVYLQMNSLKPEDTAVYYCNRVTRTWKVTYHYWGQGTQVTVSS
polyreactivity (PSR sort gate): high polyreactivity

QVQLVESGGGLVQAGGSLRLSCAASGRIFKSYAMGWYRQAPGKERELVAAISRGGRTNYADSVKGRFTISRDNAKNTVYLQMNSLKPEDTAFYYCAARFVVQGHSSPYDYWGQGTQVTVSS
polyreactivity (PSR sort gate): high polyreactivity

QVQLVESGGGLVQAGGSLRLSCAASGRIFKSYAMGWYRQAPGKERELVATISISGGSTYYADSVKGRFTISRDNEKNTVYLQMNSLKPEDNAVYYCNVDFPITEYYYWGNGTQVTVSS
polyreactivity (PSR sort gate): low polyreactivity

QVQLVESGGGLVQAGGSLRLSCAASGRIFKSYAMGWYRQAPGKEWELVAAISRGGRTNYADSVKGRFTISRDNAKNTVYLHMHSLKPEDTAVYYCAAYHRDRNSGFDYWGQGTQGTVSS
polyreactivity (PSR sort gate): high polyreactivity

QVQLVESGGGLVQAGGSLRLSCAASGRIFKTYAMGWYRQAPGKERELVAAITASGGRTYDADSVKGRFTISRDNAKNTVYLQMNSLTPEDTAVYYSAAPLLRDLRSPYSYNYWGQGTQVTVSS
polyreactivity (PSR sort gate): low polyreactivity

QVQLVESGGGLVQAGGSLRLSCAASGRIFKTYAMGWYRQAPGKEREVVAAITAAGGRTYYADSVKGRFTISRDNAKNTVYLQMNSLKPEDTAVYYCAADSGNDYDYWGQGTQVTVSS
polyreactivity (PSR sort gate): low polyreactivity

QVQLVESGGGLVQAGGSLRLSCAASGRIFKVNAMVWYRQPPGKERELVAAIRWSGGSTYYADSVKGRFTISRDNAKNTVYLQMNSLKPEDTAVFYCAATWSRRFDYWGQGSQVTVSS
polyreactivity (PSR sort gate): low polyreactivity

QVQLVESGGGLVQAGGSLRLSCAASGRIFKWYAMGWSRQAPGKEREFVAGISGSAGRTYYADSVKGRFTISRDNAKNTVYLQMNSLKPEDTAVYYCAKDYNRPVEDWAKVNGYDYWGQGTQVTVSS
polyreactivity (PSR sort gate): low polyreactivity

QVQLVESGGGLVQAGGSLRLSCAASGRIFKYNAMGWYRQAPGKERELVAAISGTGGSTYYADSVKGRFTISRDNAKNTVYLQMNSLKPEDTAVYYCAARYYIVSLGSGYWGQGTQVTVSS
polyreactivity (PSR sort gate): high polyreactivity

QVQLVESGGGLVQAGGSLRLSCAASGRIFKYNAMGWYRQAPGKERELVAAISWTGVSTHYADSVKGRFTISRDNAKNTVYLQMNSLKPEDTAVYYCAARVGRGVYYHWRDYWGQGTQVTVSS
polyreactivity (PSR sort gate): low polyreactivity

QVQLVESGGGLVQAGGSLRLSCAASGRIFKYYAKGWYRQAPGKERELVAAITSSGVSTYADSVKGRFTISRDNAKNTVYLQMNSLKPEDTAVYYCAADYVREGLGYDYWGQGTQVTVSS
polyreactivity (PSR sort gate): low polyreactivity

QVQLVESGGGLVQAGGSLRLSCAASGRIFKYYAMGWYRQSPGKERELVAAITSSGGSTYYADSVKGRFTISRDNAKNTVYLQMNRLKPEDTAVYYCAARGPKQLYPGYIYGYWGQGTQVTVSS
polyreactivity (PSR sort gate): low polyreactivity

QVQLVESGGGLVQAGGSLRLSCAASGRIFKYYARGWYRQAPGKERELVAAISGSGGTHYADSVKGRFTISRDNAKNTVYLQMNSLKPEDTAVYYCAVRWRGNGQGGSWGQGTQVTVSS
polyreactivity (PSR sort gate): high polyreactivity

QVQLVESGGGLVQAGGSLRLSCAASGRIFKYYTLGWYRQAPGKERELVAAITSRGGTTYYADSVKGRFTISRDNAKNTVYLQMNSLKPEDTAVYDCAKKRVFRHYYYYATYDYWGQGTQVTVSS
polyreactivity (PSR sort gate): low polyreactivity

QVQLVESGGGLVQAGGSLRLSCAASGRIFKYYVMGWYRQAPGKERELVAAISSGSGSTYYADSVKGRFTISRDNAKNTVYLQMNSLKPEDTAVYYCNALSSWRRTYGSRYDYWGQGTQVTVSS
polyreactivity (PSR sort gate): high polyreactivity

QVQLVESGGGLVQAGGSLRLSCAASGRIFLANAMGWYRQAPGKERELVAAISYSGGSTYYADSVKGRFTISRDNAKNTVYLQMNSLKPEDTAVYYCAADAFTWYTGRAWKYYYWGQGTQVTVSS
polyreactivity (PSR sort gate): low polyreactivity

QVQLVESGGGLVQAGGSLRLSCAASGRIFLDYVMGWYRQAPGKEREVVAAISWSGDRTDYADSVKGRFTISLDNAKNTVYLQMNSLKPEDTAVYYCATTWYFAYSDDYKFDYWGQGTQVTVSS
polyreactivity (PSR sort gate): low polyreactivity

QVQLVESGGGLVQAGGSLRLSCAASGRIFLGYAMGWYRQAPGKERELVAAITFSGGSTYYADSVKGRFTISRDNAKNTVYLQMNSLKPEDTAVYYCAAPRLRRTYPRNRYDYWGQGTQVTVSS
polyreactivity (PSR sort gate): low polyreactivity

QVQLVESGGGLVQAGGSLRLSCAASGRIFLHYAMGWYRQAPGKERELVAAISRSGGSTYYADSVKGRFTISRDNAKNTVYLQMNSLKPEDTAVYYCAAAYPFKTTEGYYYWGQGTQVTVSS
polyreactivity (PSR sort gate): high polyreactivity

QVQLVESGGGLVQAGGSLRLSCAASGRIFLKYAMGWYRQAPGKERELVAAISRRGASTYYADSVKGRFTISRDNSKNTVYLQMNSLKPEDTAVYYCKARTSSGMDYWGQGTQVTVSS
polyreactivity (PSR sort gate): high polyreactivity

QVQLVESGGGLVQAGGSLRLSCAASGRIFLLNAMGWYRQAPGKERELVAAITSGGTTYYADSVKGRFTISRDNAKNTVYLQMNSLKPEDTAVYYCAAEAGYFTYGRRDYWGQGTQVTGSS
polyreactivity (PSR sort gate): low polyreactivity

QVQLVESGGGLVQAGGSLRLSCAASGRIFLLNPMGWNRQATGKERELVARNSSGRTYYADSVKGRFTISRVNAKNTVYLHMKSLKPEDTAVYYCNATVSSSKYRYFYVNPYDYWGQGTQVTVSS
polyreactivity (PSR sort gate): low polyreactivity

From the nanobody polyreactivity screen of Harvey et al. (2022)
